A word on the Kd: it is the free concentration of one partner at which half of the binding sites on the other are occupied at equilibrium, for simple one-to-one binding.

This passage reports Kd results from article PMC8998802 (2019).

Assay in all cases: microscale thermophoresis
Assay [1] has as its target T1, CaV1.1 AID peptide AID (UniProt Q13698).
T1 chain: QQLDEDLRGYMSWITQGE

Assay [2] addresses T2, CaV2.1 AID peptide AID (UniProt O00555).
T2 chain: QQIERELNGYMEWISKAE

Assay [3] concerns the target T3, CaV1.1 AID peptide AID (UniProt Q13698, IPPQ present).
T3 chain: QQLDEDLRGYMSWITQGE

For assay [4], the target named is T4, CaV2.1 AID peptide AID (UniProt O00555, IPPQ present).
T4 chain: QQIERELNGYMEWISKAE

Assay [5] deals with T5, CaV2.2 AID peptide AID (UniProt Q00975).
T5 chain: QQIERELNGYLEWIFKAE

For assay [6], the target named is T6, CaV2.2 AID peptide AID (UniProt Q00975, IPPQ present).
T6 chain: QQIERELNGYLEWIFKAE

B1: CaVβ2 (protein)
chain: not shown
In the case of B1, the Kd with CaV1.1 AID peptide AID [1] is 24 nM; with CaV2.1 AID peptide AID [2], 18.3 nM; with CaV1.1 AID peptide AID [3], 51 nM; with CaV2.1 AID peptide AID [4], 93 nM; in the assay with CaV2.2 AID peptide AID [5] it was 12 nM; with CaV2.2 AID peptide AID [6] it was 208 nM.
